Assay results: article doi:10.1101/2021.08.08.455546

Target: Human GRLBD-F602S (520-778), glucocorticoid receptor ligand binding domain (human) (UniProt P04150)
UniProt P04150, sequence (P04150 520-777 F602S): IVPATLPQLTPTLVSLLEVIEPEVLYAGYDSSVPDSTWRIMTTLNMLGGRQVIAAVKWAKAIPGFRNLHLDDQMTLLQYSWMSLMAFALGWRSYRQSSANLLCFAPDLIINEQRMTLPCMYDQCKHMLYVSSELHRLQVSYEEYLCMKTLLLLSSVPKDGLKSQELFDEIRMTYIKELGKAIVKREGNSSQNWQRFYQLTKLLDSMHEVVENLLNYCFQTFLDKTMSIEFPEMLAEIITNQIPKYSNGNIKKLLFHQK

relaxation energy of the GRLBD chain with hHsp90 in absence of ATP: 42 KBT
Substance: Human Hsp90β (from UniProt P08238 1-724) (natural protein)
